We go through two molecules from patent publication US8658382B2, “Proteins with pteridine glycosyltransferase activity and analysis method using the same” (Inje University Industry-Academic Cooperation Foundation, priority 2008, dated 2014).

The nature of data set [1]: Characterization of enzyme activity by amount of protein, compared with BGluT. Type of data set: biochemical. To be noted: production of tetrahydrobiopterin-glycoside by amount of protein (0.05-1.0 μg), FIG. 11. On the procedure:
The enzymatic activities for the isolated proteins were compared with that of BGluT. First, production profiles of tetrahydrobiopterin(BH4)-glucoside produced according to amounts of the proteins was compared with that of BGluT. The enzyme activities were represented as a percentage to all converted amounts. The reaction condition was as follows. That is, reactions were performed in a final volume of 100 μl, which consisted of 50 mM Tris-HCl (pH 7.5), 10 mM MgCl2, 0.05% ascorbic acid, 1 μM tetrahydrobiopterin, 500 μM UDP-glucose or UDP-xylose, and a protein (0.05-1.0 μg). The reaction mixture was incubated at 37 for 20 minutes. 30 μl of acidic iodine solution (2%/1% KI/I2 in 1 M HCl) was added thereto in darkness for 1 hour at room temperature, so as to oxidize the reaction mixture. After centrifugation, the resulting supernatant was mixed with 10 μl of 5% ascorbic acid and neutralized with 30 μl of 1N NaOH for injection to HPLC.

A short description of data set [2]: Analysis of protein activity of the recombinant proteins with UDP-glycosides. Type of data set: biochemical. The method, then:
The protein activity was assayed in 100 μl of reaction mixture having the following composition: 50 mM Tris-HCl (pH 7.5), 10 mM MgCl2, 0.2% ascorbic acid, 1 μM tetrahydrobiopterin, 500 μM UDP-glycoside (one of UDP-glucose, UDP-galactose, UDP-xylose, UDP-glucuronic acid, UDP-galacturonic acid, UDP-N-acetylglucosamine, and UDP-N-acetylgalactosamine) and an appropriate amount of the purified recombinant protein. The reaction was performed at 37 for 10-60 minutes depending on an amount of protein. 30 μl of acidic iodine solution (2%/1% KI/I2 in 1 M HCl) was added to the reaction mixture and allowed in darkness for 1 hour for oxidation thereof. The mixture was centrifuged to recover the supernatant, which was then mixed with 10 μl of 5% ascorbic acid. 30 μl of 1N NaOH was added to the resulting mixture for neutralization and then HPLC analysis was carried out.
HPLC system consisted of Gilson 321 pump, Gilson 234 autoinjector, a fluorescence detector (Schimadzu RF-10AXL), and a system software (Gilson Unipoint version 5.11). Chromatography was performed on a guard column (10 μm, 4.3 mm×1 cm) and an Inertsil ODS-3 (5 μm, 150×2.3 mm, GL Science, Japan) equilibrated with 10 mM potassium phosphate buffer (pH 6.0) at room temperature. Pteridines were eluted isocratically at a flow rate of 1.2 ml/min and monitored at 350/450 nm (excitation/emission). Pteridine peaks were identified and quantified by using authentic pteridines, which were purchased from Dr. B. Schirck's Lab (Jona, Switzerland). Biopterin-glucoside was isolated from Synechococcus sp. PCC 7942 (Y. K. Choi, Y. K. Hwang, Y. H. Kang, Y. S. Park, Chemical structure of 1-O-(L-erythro-biopterin-2′-yl)-alpha-glucose isolated from a cyanobacterium Synechococcus sp. PCC 7942, Pteridines, 12 (2001) 121-125).

Data set [3] in a line: Pteridine glycosyltransferase activity with human urine. The note with it: 1 μg protein, 10 μl human urine in 100 μl, FIG. 12. The data set is classed as biochemical. The method, then: Also, 1 μg of each protein was added to 100 μl of reaction solution containing 10 μl of human urine instead of tetrahydrobiopterin. The reaction mixture was incubated at for 20 minutes. For CY-49, 500 μM UDP-xylose was added as a substrate; and for other enzymes, UDP-glucose was added. Other reaction conditions were the same as in the above.

Data set [4] in a line: BGluT-catalysed glucosylation of tetrahydrobiopterin (establishing reaction conditions). The data set is classed as biochemical. The method, then: Unless otherwise specified, the following standard reaction conditions were used for the determination of tetrahydrobiopterin and its oxidized forms. Reactions were carried out in a final volume of 100 μl, which consisted of 50 mM Tris-HCl (pH 7.5), 10 mM MgCl2, 0.05% ascorbic acid, 500 μM UDP-glucose, 1 μg of BGluT, and an aliquot of pteridines or tissue extracts. The reaction mixture was incubated for 20 minutes at 37° C. and then mixed with 30 μl of acidic iodine solution (2% KIM % I2 in 1 N HCl). After 1 hour in the dark at room temperature, the oxidized mixture was centrifuged. […]
The HPLC system consisted of Gilson 321 pump, Gilson 234 autoinjector, a fluorescence detector (Schimadzu RF-10AXL), and a system software (Gilson Unipoint version 5.11). […] Pteridines were eluted isocratically at a flow rate of 1.2 ml/min and monitored at 350/450 nm (excitation/emission). Pteridine peaks were identified and quantified using authentic pteridines, which were purchased from Dr. B. Schirck's Lab (Jona, Switzerland). […]
The results of FIG. 1 illustrate that a selective and quantitative analysis of tetrahydrobiopterin is possible using BGluT. In order to validate the possibility quantitatively, various studies were carried out to establish a standard reaction condition suitable for analysis of biological samples. […]

Data set [5] in a line: Storage stability of purified recombinant BGluT. The data set is classed as physicochemical. To be noted: in 20 mM Tris-HCl (pH 7.5), 30% (v/v) glycerol, aliquots at −70° C. The text has this:
According to the present inventor's article (Y. K. Choi, Y. K. Hwang, Y. S. Park, Molecular cloning and disruption of a novel gene encoding UDP-glucose:tetrahydrobiopterin alpha-glucosyltransferase gene in Synechococcus sp. PCC 7942. FEBS Lett. 502 (2001) 73-78), the BGluT gene cloned in pET-28a was overexpressed in Escherichia coli strain BL21(DE3). The recombinant BGluT was homogeneously purified with Ni-NTA column (Qiagen). Briefly, the transformed E. coli was induced to overexpress the protein with 0.3 mM isopropyl thiogalactoside (IPTG). After being incubated at 37° C. for 3 hours, the harvested cells were washed with lysis buffer (50 mM sodium phosphate (pH 8.0), 300 mM NaCl, 10 mM imidazole), resuspended in the same buffer, and disrupted by sonication. The crude extract obtained after centrifugation was applied to a column of Ni-NTA gel (Qiagen) and purified according to the product manual. The recombinant BGluT protein was eluted with 250 mM imidazole in the lysis buffer. The purified protein was dialyzed against 20 mM Tris-HCl (pH 7.5), mixed with glycerol to a concentration of 30% (v/v), and stored in aliquots at −70° C. until use. The protein was stable up to 4 months. Protein concentration was determined using Bradford reagent.

B1: CY-49: recombinant pteridine glycosyltransferase from Spirulina maxima CY-49, amino acid SEQ ID NO 3, transfers xylose (protein)
chain: MPQKSWKLLFISTPVGPLGSGLGGGVELTLLNMAKALHSRGHDITVVAPSGSVLESLSVIEISGKLQPIAQNQDRDSLITIPENSVLGNMWEYGRQVQTNYHAIVNFAFDWLPFYLTPFFPTPIAHWVSMGSLISALDQIVVEVMKQFPGTVGFYSHTQAATFGSDLGYACLGSGLEMDRYQFCDQPHQQLAWMGRISPEKGLEDAIAAADKTGIPLAIFGKIQDEQYWQNILNTYPNAPLNYRGFLNTDELQQGLRECRGLLMTHRWVEAFGNVAIEALACGVPVISYRRGGPAEIVRDGETGWLVEPDSVTGLVDAIAKLEQIDRRQCRALAEKEYSLVALGDRLETWLSDVIALKN
modifications: Spirulina maxima CY-49
For B1, the “activity compared with BGluT” value in data set [1] is listed as “higher activities than BGluT”. Further, in data set [2], the Substrate for glucosylation result is “Xylose”. Also, the “pteridine glycosyltransferase activity (sugar bound to tetrahydrobiopterin)” value in data set [2] (1 μM tetrahydrobiopterin, 500 μM UDP-glycoside, HPLC, FIG. 10) is on record as “an activity for binding xylose to tetrahydrobiopterin”. Moreover, the “HPLC chromatogram of the reaction mixture with human urine” value in data set [3] is “showed the peak of biopterin-xylose, instead of biopterin-glucose”.

B2: BGluT: recombinant protein from a Synechococcus gene with pteridine glucosyltransferase activity (UDP-glucose:tetrahydrobiopterin glucosyltransferase) (protein)
chain: MTAHRFLFVSTPVGPLGSGRGGGVELTLPNLAKALTQRGHQVSVLAPAGSVLPDLPLETVPGTWQSTAQSHGRATPAEIPAESVLARLWDRAHQQQADFDLILNFAYDWLPLYLTPFFKTPVAHLISMGSLSEVMDQAIATSLDRYPGSIAVHSLAQAATFPFGDRCLCIGNALDLAAYGFNPEPEPVLGWVGRIAPEKGLEDAIQAAQQAGLPLRVWGALTEPDYWQRLQQQFGDRAVSYQGFVSTDELQRGLGRCQGLLMTPKWVEAFGNVAIEALACGLPVIAYARGGPLEIIEQGKSGWLVEPDQQAALVNAIGQLSSLDRAYCRAQAEARFSLAAMGQRLEAWLLPLLSRARGF
modifications: Synechococcus PCC7942
Consider B2, for which, in data set [4] (100 μl reaction mixture, 1 μM tetrahydrobiopterin, 10 minutes, FIG. 2), the “amount of BGluT above which the product is not increased any more” value is on record as “more than 1 μg”. In addition, the “conversion of tetrahydrobiopterin to its glucosylated product” value in data set [4] (even in the presence of dihydrobiopterin, FIG. 1) is given as “specifically convert only all of tetrahydrobiopterin to its glucosylated product”. Besides, in data set [5], the “time the protein was stable” value is “up to 4 months”.
